Test results published in US20240016923A1.

Columns and labels:
[1] = biological target: secreted E2 ectodomain (sE2), HCV E2 residues 384-661 (Hepatitis C virus, isolate H77C) (UniProt P27958); assay: SPR (Biacore T200); sE2 amine-coupled to a CM5 chip, CD81-LEL injected; 1:1 model, Kd = koff/kon
[2] = biological target: secreted E2 ectodomain (sE2), HCV E2 residues 384-661 (Hepatitis C virus, isolate H77C) (UniProt P27958); assay: SPR (Biacore T200); sE2 amine-coupled to a CM5 chip, CD81-LEL injected; 1:1 model

B1: CD81 large extracellular loop (CD81-LEL) (receptor, UniProt P60033 113-201, looked up, not shown: small tags and cut ends)
chain: FVNKDQIAKDVKQFYDQALQQAVVDDDANNAKAVVKTFHETLDCCGSSTLTALTTSVLKNNLCPSGSNIISNLFKEDCHQKIDDLFSGK
**Q.** B1 was tested. Which Kd [1] did it give?
**A.** 7 nM

**Q.** What about the koff [2] of the same binder?
**A.** 0.00045 s⁻¹

**Q.** And the kon [2]?
**A.** 65000 M⁻¹ s⁻¹
